Source: patent US20240270846A1 (published 2024)
Changes are numbered by the printed parent chain. Names and notes keep the numbering of the source.

B1: GLS3000 T92S one-arm antibody (antibody, human IgG1, kappa, L234A L235A, N297A, name in Kabat numbering)
light: DIVMTQSPLSLPVTPGEPASISCRSSQSLVHSNRNTYLHWYQQKPGQAPRLLIYKVSNRFSGVPDRFSGSGSGTDFTLKISRVEAEDVGVYYCGQGSQVPYTFGQGTKLEIKRTVAAPSVFIFPPSDEQLKSGTASVVCLLNNFYPREAKVQWKVDNALQSGNSQESVTEQDSKDSTYSLSSTLTLSKADYEKHKVYACEVTHQGLSSPVTKSFNRGEC
heavy: QVQLVESGGGVVQPGRSLRLSCAASGFTFSNAWMHWVRQAPGKGLEWVAQIKAKSNNYATYYAESVKGRFTISRDDSKNSLYLQMNSLKTEDTAVYYCRYVHYGAYYGVDAWGQGTTVTVSSASTKGPSVFPLAPSSKSTSGGTAALGCLVKDYFPEPVTVSWNSGALTSGVHTFPAVLQSSGLYSLSSVVTVPSSSLGTQTYICNVNHKPSNTKVDKKVEPKSCDKTHTCPPCPAPEAAGGPSVFLFPPKPKDTLMISRTPEVTCVVVDVSHEDPEVKFNWYVDGVEVHNAKTKPREEQYASTYRVVSVLTVLHQDWLNGKEYKCKVSNKALPAPIEKTISKAKGQPREPQVYTLPPSRCELTKNQVSLSCAVKGFYPSDIAVEWESNGQPENNYKTTPPVLDSDGSFFLVSKLTVDKSRWQQGNVFSCSVMHEALHNHYTQKSLSLSPDYKDDDDK
chain: EPKSSDKTHTCPPCPAPELLGGPSVFLFPPKPKDTLMISRTPEVTCVVVDVSHEDPEVKFNWYVDGVEVHNAKTKPREEQYNSTYRVVSVLTVLHQDWLNGKEYKCKVSNKALPAPIEKTISKAKGQPREPQVCTLPPSRDELTKNQVSLWCLVKGFYPSDIAVEWESNGQPENNYKTTPPVLDSDGSFFLYSKLTVDKSRWQQGNVFSCSVMHEALHNRYTQKSLSLSP
B2: GLS3000 Y32P one-arm antibody (antibody, human IgG1, kappa, L234A L235A, N297A, name in Kabat numbering)
light: B1 light with Y37P, S97T
heavy: B1 heavy
chain: B1 chain
B3: GLS3000 V94H one-arm antibody (antibody, human IgG1, kappa, L234A L235A, N297A, name in Kabat numbering)
light: B1 light with S97T, V99H
heavy: B1 heavy
chain: B1 chain
B4: GLS3000 T97P one-arm antibody (antibody, human IgG1, kappa, L234A L235A, N297A, name in Kabat numbering)
light: B1 light with S97T, T102P
heavy: B1 heavy
chain: B1 chain
B5: GLS3000 V94Q one-arm antibody (antibody, human IgG1, kappa, L234A L235A, N297A, name in Kabat numbering)
light: B1 light with S97T, V99Q
heavy: B1 heavy
chain: B1 chain
B6: GLS3000 Y32F one-arm antibody (antibody, human IgG1, kappa, L234A L235A, N297A, name in Kabat numbering)
light: B1 light with Y37F, S97T
heavy: B1 heavy
chain: B1 chain
B7: GLS3000 V94L one-arm antibody (antibody, human IgG1, kappa, L234A L235A, N297A, name in Kabat numbering)
light: B1 light with S97T, V99L
heavy: B1 heavy
chain: B1 chain
B8: GLS3000 V94W one-arm antibody (antibody, human IgG1, kappa, L234A L235A, N297A, name in Kabat numbering)
light: B1 light with S97T, V99W
heavy: B1 heavy
chain: B1 chain
B9: GLS3000 V94R one-arm antibody (antibody, human IgG1, kappa, L234A L235A, N297A, name in Kabat numbering)
light: B1 light with S97T, V99R
heavy: B1 heavy
chain: B1 chain
B10: GLS3000 V94K one-arm antibody (antibody, human IgG1, kappa, L234A L235A, N297A, name in Kabat numbering)
light: B1 light with S97T, V99K
heavy: B1 heavy
chain: B1 chain
B11: GLS3000 V51I one-arm antibody (antibody, human IgG1, kappa, L234A L235A, N297A, name in Kabat numbering)
light: B1 light with V56I, S97T
heavy: B1 heavy
chain: B1 chain
B12: GLS3000 V94N one-arm antibody (antibody, human IgG1, kappa, L234A L235A, N297A, name in Kabat numbering)
light: B1 light with S97T, V99N
heavy: B1 heavy
chain: B1 chain
B13: GLS3000 V51P one-arm antibody (antibody, human IgG1, kappa, L234A L235A, N297A, name in Kabat numbering)
light: B1 light with V56P, S97T
heavy: B1 heavy
chain: B1 chain
B14: GLS3000 V94P one-arm antibody (antibody, human IgG1, kappa, L234A L235A, N297A, name in Kabat numbering)
light: B1 light with S97T, V99P
heavy: B1 heavy
chain: B1 chain
B15: GLS3000 V94E one-arm antibody (antibody, human IgG1, kappa, L234A L235A, N297A, name in Kabat numbering)
light: B1 light with S97T, V99E
heavy: B1 heavy
chain: B1 chain
B16: GLS3000 V51G one-arm antibody (antibody, human IgG1, kappa, L234A L235A, N297A, name in Kabat numbering)
light: B1 light with V56G, S97T
heavy: B1 heavy
chain: B1 chain
B17: GLS3000 Y96H one-arm antibody (antibody, human IgG1, kappa, L234A L235A, N297A, name in Kabat numbering)
light: B1 light with S97T, Y101H
heavy: B1 heavy
chain: B1 chain
B18: GLS3000 V94S one-arm antibody (antibody, human IgG1, kappa, L234A L235A, N297A, name in Kabat numbering)
light: B1 light with S97T, V99S
heavy: B1 heavy
chain: B1 chain
B19: GLS3000 V94G one-arm antibody (antibody, human IgG1, kappa, L234A L235A, N297A, name in Kabat numbering)
light: B1 light with S97T, V99G
heavy: B1 heavy
chain: B1 chain
B20: GLS3000 V94T one-arm antibody (antibody, human IgG1, kappa, L234A L235A, N297A, name in Kabat numbering)
light: B1 light with S97T, V99T
heavy: B1 heavy
chain: B1 chain
B21: GLS3000 Y96D one-arm antibody (antibody, human IgG1, kappa, L234A L235A, N297A, name in Kabat numbering)
light: B1 light with S97T, Y101D
heavy: B1 heavy
chain: B1 chain
B22: GLS3000 Y96L one-arm antibody (antibody, human IgG1, kappa, L234A L235A, N297A, name in Kabat numbering)
light: B1 light with S97T, Y101L
heavy: B1 heavy
chain: B1 chain
B23: GLS3000 V94D one-arm antibody (antibody, human IgG1, kappa, L234A L235A, N297A, name in Kabat numbering)
light: B1 light with S97T, V99D
heavy: B1 heavy
chain: B1 chain
B24: GLS3000 V94I one-arm antibody (antibody, human IgG1, kappa, L234A L235A, N297A, name in Kabat numbering)
light: B1 light with S97T, V99I
heavy: B1 heavy
chain: B1 chain
B25: GLS3000 V94M one-arm antibody (antibody, human IgG1, kappa, L234A L235A, N297A, name in Kabat numbering)
light: B1 light with S97T, V99M
heavy: B1 heavy
chain: B1 chain
B26: GLS3000 Y96E one-arm antibody (antibody, human IgG1, kappa, L234A L235A, N297A, name in Kabat numbering)
light: B1 light with S97T, Y101E
heavy: B1 heavy
chain: B1 chain
B27: GLS3000 V94F one-arm antibody (antibody, human IgG1, kappa, L234A L235A, N297A, name in Kabat numbering)
light: B1 light with S97T, V99F
heavy: B1 heavy
chain: B1 chain
B28: GLS3000 Y96F one-arm antibody (antibody, human IgG1, kappa, L234A L235A, N297A, name in Kabat numbering)
light: B1 light with S97T, Y101F
heavy: B1 heavy
chain: B1 chain
B29: GLS3000 V51E one-arm antibody (antibody, human IgG1, kappa, L234A L235A, N297A, name in Kabat numbering)
light: B1 light with V56E, S97T
heavy: B1 heavy
chain: B1 chain
B30: CE115HA000/GLS3000 N53D one-arm antibody (antibody, human IgG1, kappa, L234A L235A, N297A, name in Kabat numbering)
heavy: B1 heavy
chain: B1 chain
light: B1 light with N58D, S97T
notes: one-arm IgG1
B31: CE115HA000/GLS3000 F55D one-arm antibody (antibody, human IgG1, kappa, L234A L235A, N297A, name in Kabat numbering)
heavy: B1 heavy
chain: B1 chain
light: B1 light with F60D, S97T
notes: one-arm IgG1
B32: CE115HA000/GLS3000 F55E one-arm antibody (antibody, human IgG1, kappa, L234A L235A, N297A, name in Kabat numbering)
heavy: B1 heavy
chain: B1 chain
light: B1 light with F60E, S97T
notes: one-arm IgG1
B33: CE115HA000/GLS3000 F55G one-arm antibody (antibody, human IgG1, kappa, L234A L235A, N297A, name in Kabat numbering)
heavy: B1 heavy
chain: B1 chain
light: B1 light with F60G, S97T
notes: one-arm IgG1

Each binder was assayed against T1, CD3 epsilon homodimer protein (UniProt P07766 23-126) (assay: SPR Biacore T200, CD3e homodimer on chip, antibody analyte;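 also: CD3 epsilon homodimer amine-coupled on CM4 sensor chip, antibodies injected as analyte at 25 °C in HBS-EP+, ratio ≥0.8 taken as binding retained versus unaltered parent antibody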).
T1 construct: Construct of the homodimer is not described; also called CD3 (CD3 epsilon)
T1 sequence (P07766 23-126): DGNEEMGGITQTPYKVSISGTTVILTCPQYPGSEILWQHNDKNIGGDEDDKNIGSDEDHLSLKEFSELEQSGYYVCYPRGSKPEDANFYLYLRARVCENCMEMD

Binder | ratio of amounts bound (altered form/GLS3000)
B1 | 0.96
B2 | 0.24
B3 | 0.78
B4 | 0.31
B5 | 0.76
B6 | 0.29
B7 | 0.44
B8 | 0.58
B9 | 0.66
B10 | 0.57
B11 | 0.81
B12 | 1.05
B13 | 0.32
B14 | 1.26
B15 | 0.5
B16 | 0.84
B17 | 0.23
B18 | 0.93
B19 | 0.48
B20 | 0.93
B21 | 0.17
B22 | 0.32
B23 | 0.89
B24 | 0.66
B25 | 0.44
B26 | 0.17
B27 | 0.71
B28 | 1.17
B29 | 0.64

Each binder was assayed against T2, CD3 epsilon homodimer protein (UniProt P07766 23-126) (assay: SPR (Biacore T200), CD3e homodimer on CM4 chip, antibody as analyte; KD ratio vs unaltered GLS3000;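 also: CD3 epsilon homodimer amine-coupled to the sensor surface, antibodies injected as analyte at 25 °C with HBS-EP+ running buffer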).
T2 construct: also called CD3 (CD3 epsilon)
T2 sequence (P07766 23-126): as above

Binder | KD ratio to GLS3000
B30 | 2.8 ratio
B31 | 1.02 ratio
B32 | 0.92 ratio
B33 | 1.15 ratio
